Assay results from US20230348564A1, “ANTI-CANCER PROTEINS” (UNICHEM LABORATORIES LTD, priority 2020, published 2023).

Columns and labels:
[1] = tested on: HT-29 (Colorectal cancer); experiment: Xenograft study; type: in vivo, mice
Text: (§1) The Xenograft models used were HT-29, KB, PA-1, MCF-7, PANC-1, T24 and MDA-MB-231. The basic study design for the Xenograft study was as follows: • 1. Cell maintenance and cell suspension preparation • 2. Aseptic injection of tumor cell suspension in the donor animal • 3. Randomization of animals in respective groups • 4. IP dosing of test items in predetermined doses • 5. IP administration of standard • 6. After completion of dosing period. • 7. The Tumor volume recording weekly twice while body weight and clinical signs daily.

[2] = tested on: MDA-MB-231 (Mammary gland/breast adenocarcinoma); experiment: Xenograft study; type: in vivo, mice; conditions: MDA-MB-231 xenograft, IP
Text: as §1

[3] = tested on: T24 (Urinary bladder/transitional cell carcinoma); experiment: Xenograft study; type: in vivo, mice; conditions: IP
Text: as §1

[4] = tested on: PA-1 (Ovary teratocarcinoma); experiment: Xenograft study; type: in vivo, mice; conditions: PA-1 xenograft, IP
Text: as §1

[5] = tested on: PANC-1 (Pancreas/duct epithelioid carcinoma); experiment: Xenograft study; type: in vivo, mice; conditions: PANC-1 xenograft, IP
Text: as §1

KB (Cervical cancer) = experiment: Xenograft study; type: in vivo, mice; conditions: IP
Text: as §1

MCF-7 (Breast cancer) = experiment: Xenograft study; type: in vivo, mice; conditions: MCF-7 xenograft, IP
Text: as §1

MDA-MB-231 = experiment: Cell cycle analysis (PI stain); type: cell-based, Human; conditions: 24 h
Protocol: (§2) The cell lines were maintained in DMEM+10% FBS (heat inactivated) at 37° C. with 5% CO2, and 95% humidity. Antibiotics Penicillin (100 U/mL) and Streptomycin (100 μg/mL) were added to the medium.
(§3) The stock solution of recombinant lectin having the amino acid sequence of SEQ ID NO. […] Doxorubicin was used as positive control and stock solution was prepared in DMSO.
(§4) Cells were counted using hemocytometer and plated in culture plates at density of 0.5×10^6 cells/well in DMEM+10% FBS in 6-well plates. Cells were incubated overnight to allow the cell recovery and exponential growth. Following overnight incubation, cells were sera starved in DMEM+1% FBS for 4 h. […] Untreated cells were included as Control group for test item. Cells treated with Doxorubicin were included as Positive Control group. DMSO treated cells were included as control group for Doxorubicin. After treatment, cells were incubated for a time period of 24 h. Following incubation, the pro-apoptotic effect by cell cycle was determined as follows: Cell cycle reagent contains PI stain, which stains DNA of cells in different phases of cell cycle; Sub(G0/G1), G1, S, G2 and M. Cells in Sub(G0/G1) phase correspond to apoptotic cells.
(§5) Cells were gently harvested into pre-labeled centrifuge tubes and centrifuged at 450 g for 5 min, RT (low brake). The supernatants were removed carefully (not to touch the pellet) and discarded. 1 mL of 1×PBS was added to the pellet and resuspended gently to make homogenous suspension. Cells were centrifuged at 450 g for 5 min, RT (low brake) (washing step). The supernatant was carefully removed leaving behind approx 100 μL of PBS. Cells were resuspended gently yet thoroughly in residual PBS. Ice-cold 70% ethanol (300 μLI) was added drop-wise into cells in each tube while vortexing at low speed (fixation step). Cells were stored at 4° C. for 24 h prior to staining.
(§6) Ethanol fixed cells were centrifuged at 450 g for 5 min, RT (low brake). The supernatant was carefully removed (not to touch the pellet) and discarded. (The pellet might not be visible but makes a thin film on surface of tube). 1 mL of 1×PBS was added into pellet and resuspended gently. Cells were incubated for 1 min at RT. Cells were centrifuged at 450 g for 5 min, RT (low brake) (washing step). The supernatant was removed carefully leaving behind approx 20 μL-50 μL of PBS. 200 μL of Cell Cycle reagent was added into each tube.
(§7) Cells were resuspended gently, mixed and were incubated for 30 min, RT, Dark. The stained samples were transferred into 96-well plates and acquired on flow cytometer (Guava technologies). Percentage of cells in Sub (G0/G1) phase were determined. Fold increase in apoptotic cells (treated with Test Items) was determined as compared to Control (untreated cells).

PANC-1 = experiment: Cell cycle analysis (PI stain); type: cell-based, Human; conditions: 24 h
Protocol: as §2, §3, §4, §5, §6, §7

B1: SEQ ID NO. 2: recombinant lectin; variant of the S. rolfsii lectin amino acid sequence (reported as Rec-2 in WO 2010/095143) (protein)
chain: TYKITVRVYQTNPDAFFHPVEKTVWKYANGGTWTITDDQHVLTMGGSGTSGTLRFHADNGESFTATFGVHNYKRWCDIVTNLAADETGMVINQQYYSQKNREEARERQLSNYQVKNAKGRNFQIVYTEAEGNDLHANLIIG
modifications: In vitro synthesis
- tumor volume in comparison with the vehicle control group, in words ([1]; 20 mg/Kg and 30 mg/Kg body weight (daily)): significant decrease in tumor volume
- Maximum Tumor Growth Inhibition (%) ([1]; HT-29 xenograft, IP): 56.62%
- Tumor Volume (mm^3) (Mean ± SEM) ([1]; HT-29 xenograft, IP): 1702 ± 274 mm^3
- Maximum Tumor Growth Inhibition (%) [2]: 35.21%
- Tumor Volume (mm^3) (Mean ± SEM) [2]: 834.80 ± 126.95 mm^3
- Maximum Tumor Growth Inhibition (%) [3]: 36.52%
- Tumor Volume (mm^3) (Mean ± SEM) [3]: 551.06 ± 10.02 mm^3
- Maximum Tumor Growth Inhibition (%) [4]: 62.15%
- Tumor Volume (mm^3) (Mean ± SEM) [4]: 1050 ± 132 mm^3
- Maximum Tumor Growth Inhibition (%) [5]: 39.15%
- Tumor Volume (mm^3) (Mean ± SEM) [5]: 721.17 ± 194.63 mm^3
- Maximum Tumor Growth Inhibition (%) (KB (Cervical cancer)): 60.49%
- Tumor Volume (mm^3) (Mean ± SEM) (KB (Cervical cancer)): 782 ± 92 mm^3
- Maximum Tumor Growth Inhibition (%) (MCF-7 (Breast cancer)): 69.04%
- Tumor Volume (mm^3) (Mean ± SEM) (MCF-7 (Breast cancer)): 1256 ± 132 mm^3
- % Population of cells, Apoptotic Sub(G0/G1) (MDA-MB-231; 2.5 μg/mL): 10.05%
- % Population of cells, G0/G1 (MDA-MB-231; 2.5 μg/mL): 65.21%
- % Population of cells, G2/M (MDA-MB-231; 2.5 μg/mL): 12.97%
- % Population of cells, S (MDA-MB-231; 2.5 μg/mL): 6.10%
- Fold Increase (wrt Control) Apoptotic Sub(G0/G1) (MDA-MB-231; 2.5 μg/mL): 4.1 fold
- % Population of cells, Apoptotic Sub(G0/G1) (MDA-MB-231; 5 μg/mL): 5.75%
- % Population of cells, G0/G1 (MDA-MB-231; 5 μg/mL): 61.99%
- % Population of cells, G2/M (MDA-MB-231; 5 μg/mL): 15.40%
- % Population of cells, S (MDA-MB-231; 5 μg/mL): 8.15%
- Fold Increase (wrt Control) Apoptotic Sub(G0/G1) (MDA-MB-231; 5 μg/mL): 2.3 fold
- % Population of cells, Apoptotic Sub(G0/G1) (MDA-MB-231; 10 μg/mL): 6.65%
- % Population of cells, G0/G1 (MDA-MB-231; 10 μg/mL): 60.71%
- % Population of cells, G2/M (MDA-MB-231; 10 μg/mL): 15.50%
- % Population of cells, S (MDA-MB-231; 10 μg/mL): 7.36%
- Fold Increase (wrt Control) Apoptotic Sub(G0/G1) (MDA-MB-231; 10 μg/mL): 2.7 fold
- % Population of cells, Apoptotic Sub(G0/G1) (MDA-MB-231; 20 μg/mL): 15.43%
- % Population of cells, G0/G1 (MDA-MB-231; 20 μg/mL): 55.66%
- % Population of cells, G2/M (MDA-MB-231; 20 μg/mL): 13.35%
- % Population of cells, S (MDA-MB-231; 20 μg/mL): 6.55%
- Fold Increase (wrt Control) Apoptotic Sub(G0/G1) (MDA-MB-231; 20 μg/mL): 6.3 fold
- % Population of cells, Apoptotic Sub(G0/G1) (MDA-MB-231; 80 μg/mL): 35.62%
- % Population of cells, G0/G1 (MDA-MB-231; 80 μg/mL): 42.49%
- % Population of cells, G2/M (MDA-MB-231; 80 μg/mL): 10.14%
- % Population of cells, S (MDA-MB-231; 80 μg/mL): 8.09%
- Fold Increase (wrt Control) Apoptotic Sub(G0/G1) (MDA-MB-231; 80 μg/mL): 14.5 fold
- % Population of cells, Apoptotic Sub(G0/G1) (PANC-1; 2.5 μg/mL): 1.60%
- % Population of cells, G0/G1 (PANC-1; 2.5 μg/mL): 38.89%
- % Population of cells, G2/M (PANC-1; 2.5 μg/mL): 24.83%
- % Population of cells, S (PANC-1; 2.5 μg/mL): 9.89%
- % Population of cells, Apoptotic Sub(G0/G1) (PANC-1; 5 μg/mL): 2.54%
- % Population of cells, G0/G1 (PANC-1; 5 μg/mL): 40.09%
- % Population of cells, G2/M (PANC-1; 5 μg/mL): 23.83%
- % Population of cells, S (PANC-1; 5 μg/mL): 10.31%
- Fold Increase (wrt Control) Apoptotic Sub(G0/G1) (PANC-1; 5 μg/mL): 1.4 fold
- % Population of cells, Apoptotic Sub(G0/G1) (PANC-1; 10 μg/mL): 4.23%
- % Population of cells, G0/G1 (PANC-1; 10 μg/mL): 44.43%
- % Population of cells, G2/M (PANC-1; 10 μg/mL): 23.92%
- % Population of cells, S (PANC-1; 10 μg/mL): 10.15%
- Fold Increase (wrt Control) Apoptotic Sub(G0/G1) (PANC-1; 10 μg/mL): 2.4 fold
- % Population of cells, Apoptotic Sub(G0/G1) (PANC-1; 20 μg/mL): 3.92%
- % Population of cells, G0/G1 (PANC-1; 20 μg/mL): 44.24%
- % Population of cells, G2/M (PANC-1; 20 μg/mL): 23.79%
- % Population of cells, S (PANC-1; 20 μg/mL): 10.83%
- Fold Increase (wrt Control) Apoptotic Sub(G0/G1) (PANC-1; 20 μg/mL): 2.2 fold
- % Population of cells, Apoptotic Sub(G0/G1) (PANC-1; 80 μg/mL): 6.21%
- % Population of cells, G0/G1 (PANC-1; 80 μg/mL): 39.63%
- % Population of cells, G2/M (PANC-1; 80 μg/mL): 27.41%
- % Population of cells, S (PANC-1; 80 μg/mL): 9.58%
- Fold Increase (wrt Control) Apoptotic Sub(G0/G1) (PANC-1; 80 μg/mL): 3.5 fold
